Measurements: US20230212549A1, “COMPOUNDS COMPRISING A […] LIGAND AND USE THEREOF” (priority 2021, published 2023)

What was measured:
[1] = target: human fibroblast activation protein (FAP) on WI-38 fibroblasts (human) (UniProt Q12884); assay: competitive FACS, WI-38 cells, Cy5-labeled peptide as competitor
mu (MOP) (h) (human) = mu (MOP) (h) (human) (UniProt P35372); assay: reference compound of the radioligand binding assay (Ki Ref)
[2] = target: fibroblast activation protein (FAP) on FAP-expressing human WI-38 fibroblasts (human) (UniProt Q12884); assay: competitive FACS, WI-38 cells, vs Cy5 tracer m3; D = pIC50 <=6.0
delta (DOP) (h) (human) = delta (DOP) (h) (human) (UniProt P41143); assay: reference compound of the radioligand binding assay (Ki Ref)
[3] = target: human fibroblast activating protein (FAP) on WI-38 fibroblasts (human) (UniProt Q12884); assay: competitive FACS on WI-38 cells vs 3 nM Cy5-labeled peptide; pIC50 category D = ≤6.0

Chain of mu (MOP) (h) (human) (P35372 whole entry): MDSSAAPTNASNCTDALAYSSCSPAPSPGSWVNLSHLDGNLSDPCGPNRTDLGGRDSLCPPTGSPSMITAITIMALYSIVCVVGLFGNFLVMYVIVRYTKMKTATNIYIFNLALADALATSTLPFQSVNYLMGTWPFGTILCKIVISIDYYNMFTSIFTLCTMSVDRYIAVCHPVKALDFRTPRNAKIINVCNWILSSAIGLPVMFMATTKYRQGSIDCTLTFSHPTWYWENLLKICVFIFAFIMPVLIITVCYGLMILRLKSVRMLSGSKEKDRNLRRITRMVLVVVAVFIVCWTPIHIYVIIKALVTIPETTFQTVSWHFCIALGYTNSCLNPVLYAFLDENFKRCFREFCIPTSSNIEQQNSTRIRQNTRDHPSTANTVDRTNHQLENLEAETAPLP
Chain of delta (DOP) (h) (human) (P41143 whole entry, stated change not applied): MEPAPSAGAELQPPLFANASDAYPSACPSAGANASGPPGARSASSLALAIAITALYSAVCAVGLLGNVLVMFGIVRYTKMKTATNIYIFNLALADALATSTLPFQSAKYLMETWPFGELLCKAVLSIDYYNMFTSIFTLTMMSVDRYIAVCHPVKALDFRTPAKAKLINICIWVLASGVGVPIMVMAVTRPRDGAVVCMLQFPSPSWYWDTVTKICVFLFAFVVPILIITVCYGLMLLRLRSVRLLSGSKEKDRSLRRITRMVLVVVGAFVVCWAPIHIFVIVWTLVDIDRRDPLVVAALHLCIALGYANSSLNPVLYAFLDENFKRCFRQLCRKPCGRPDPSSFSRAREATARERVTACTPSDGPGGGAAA

Row | pIC50 Category (FACS) [1] [pIC50] | Substance | other results
1 | < 6 | Ac-Aad-[Cys(3MeBn)-Pro-Pro-Thr-Gln-Phe-Cys]-NH2 (peptide) | –
2 | – | DAMGO (peptide) | Ki (mu (MOP) (h) (human)): 0.37 nM
3 | – | DOTA-Ttds-Hci-[Cys(3MeBn)-Pro-Pro-Thr-Gln-Phe-Cys]-Bal-OH (peptide) | pIC50 Category (FACS) [2]: < 6 pIC50
4 | – | DPDPE (peptide) | Ki (delta (DOP) (h) (human)): 1.2 nM
5 | < 6 | H-Ahx-[Cys(3MeBn)-Pro-Pro-Thr-Gln-Phe-Cys]-NH2 (peptide) | –
6 | < 6 | H-Ava-[Cys(3MeBn)-Pro-Pro-Thr-Gln-Phe-Cys]-NH2 (peptide) | –
7 | < 6 | H-Gab-[Cys(3MeBn)-Pro-Pro-Thr-Gln-Phe-Cys]-NH2 (peptide) | –
8 | – | N4Ac-PPAc-Bal--Nle-[C(3MeBn)-PPTEFC]-OH (peptide) | pIC50 [3]: < 6 pic50
9 | < 6 | N4Ac-Ttds-Glu(AGLU′)-Nle-[Cys-(3MeBn)-Pro-Pro-Thr-Gln-Phe-Cys]-OH (peptide) | –
10 | < 6 | N4Ac-gGlu-Nle-[Cys-(3MeBn)-Pro-Pro-Thr-Gln-Phe-Cys]-OH (peptide) | –
